# In patent US20180155451A1 (published 2018):
# Target: FcγRIIa H (human FcγRIIa, allotype with His at position 131), extracellular domain with C-terminal His tag (human, UniProt P12318 34-217)
# Assay: SPR (Biacore), antibody captured on antigen peptide chip, FcγR as analyte; relative to HeCon Ab GpH7-A5/GpH7-B3/GpL16-k0 = 100
# Chain of FcγRIIa H (human FcγRIIa, allotype with His at position 131), extracellular domain with C-terminal His tag (P12318 34-217): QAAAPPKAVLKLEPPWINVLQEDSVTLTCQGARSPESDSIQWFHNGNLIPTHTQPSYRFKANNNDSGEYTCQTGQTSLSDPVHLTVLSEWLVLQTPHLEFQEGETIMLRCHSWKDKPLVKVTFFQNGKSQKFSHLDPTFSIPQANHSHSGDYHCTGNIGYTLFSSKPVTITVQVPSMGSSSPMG
row,Binder,He/Con_2aH [control = 100]
1,"GpH7-A5/GpH7-B3 variant I336_08L/GpL16-k0 (antibody, human IgG1, kappa, heterodimerized, mutation in one H chain only; also called He Ab) heavy 1: not shown heavy 2: not shown light: DIVMTQSPLSLPVTPGEPASISCQASESLVHSNRNTYLHWYLQKPGQSPQLLIYKVSNRFSGVPDRFSGSGSGTDFTLKISRVEAEDVGVYYCSQNTHVPPTFGQGTKVEIERTVAAPSVFIFPPSDEQLKSGTASVVCLLNNFYPREAKVQWKVDNALQSGNSQESVTEQDSKDSTYSLSSTLTLSKADYEKHKVYACEVTHQGLSSPVTKSFNRGEC",106
2,"GpH7-A5/GpH7-B3 variant K326_06M/GpL16-k0 (antibody, human IgG1, kappa, heterodimerized, mutation in one H chain only; also called He Ab) heavy 1: not shown heavy 2: not shown light: DIVMTQSPLSLPVTPGEPASISCQASESLVHSNRNTYLHWYLQKPGQSPQLLIYKVSNRFSGVPDRFSGSGSGTDFTLKISRVEAEDVGVYYCSQNTHVPPTFGQGTKVEIERTVAAPSVFIFPPSDEQLKSGTASVVCLLNNFYPREAKVQWKVDNALQSGNSQESVTEQDSKDSTYSLSSTLTLSKADYEKHKVYACEVTHQGLSSPVTKSFNRGEC",103
3,"GpH7-A5/GpH7-B3 variant K326_10E/GpL16-k0 (antibody, human IgG1, kappa, heterodimerized, mutation in one H chain only; also called He Ab) heavy 1: not shown heavy 2: not shown light: DIVMTQSPLSLPVTPGEPASISCQASESLVHSNRNTYLHWYLQKPGQSPQLLIYKVSNRFSGVPDRFSGSGSGTDFTLKISRVEAEDVGVYYCSQNTHVPPTFGQGTKVEIERTVAAPSVFIFPPSDEQLKSGTASVVCLLNNFYPREAKVQWKVDNALQSGNSQESVTEQDSKDSTYSLSSTLTLSKADYEKHKVYACEVTHQGLSSPVTKSFNRGEC",102
4,"GpH7-A5/GpH7-B3 variant K326_19Q/GpL16-k0 (antibody, human IgG1, kappa, heterodimerized, mutation in one H chain only; also called He Ab) heavy 1: not shown heavy 2: not shown light: DIVMTQSPLSLPVTPGEPASISCQASESLVHSNRNTYLHWYLQKPGQSPQLLIYKVSNRFSGVPDRFSGSGSGTDFTLKISRVEAEDVGVYYCSQNTHVPPTFGQGTKVEIERTVAAPSVFIFPPSDEQLKSGTASVVCLLNNFYPREAKVQWKVDNALQSGNSQESVTEQDSKDSTYSLSSTLTLSKADYEKHKVYACEVTHQGLSSPVTKSFNRGEC",101
5,"GpH7-A5/GpH7-B3 variant K334_04F/GpL16-k0 (antibody, human IgG1, kappa, heterodimerized, mutation in one H chain only; also called He Ab) heavy 1: not shown heavy 2: not shown light: DIVMTQSPLSLPVTPGEPASISCQASESLVHSNRNTYLHWYLQKPGQSPQLLIYKVSNRFSGVPDRFSGSGSGTDFTLKISRVEAEDVGVYYCSQNTHVPPTFGQGTKVEIERTVAAPSVFIFPPSDEQLKSGTASVVCLLNNFYPREAKVQWKVDNALQSGNSQESVTEQDSKDSTYSLSSTLTLSKADYEKHKVYACEVTHQGLSSPVTKSFNRGEC",106
6,"GpH7-A5/GpH7-B3 variant K334_08L/GpL16-k0 (antibody, human IgG1, kappa, heterodimerized, mutation in one H chain only; also called He Ab) heavy 1: not shown heavy 2: not shown light: DIVMTQSPLSLPVTPGEPASISCQASESLVHSNRNTYLHWYLQKPGQSPQLLIYKVSNRFSGVPDRFSGSGSGTDFTLKISRVEAEDVGVYYCSQNTHVPPTFGQGTKVEIERTVAAPSVFIFPPSDEQLKSGTASVVCLLNNFYPREAKVQWKVDNALQSGNSQESVTEQDSKDSTYSLSSTLTLSKADYEKHKVYACEVTHQGLSSPVTKSFNRGEC",104
7,"GpH7-A5/GpH7-B3 variant K334_16H/GpL16-k0 (antibody, human IgG1, kappa, heterodimerized, mutation in one H chain only; also called He Ab) heavy 1: not shown heavy 2: not shown light: DIVMTQSPLSLPVTPGEPASISCQASESLVHSNRNTYLHWYLQKPGQSPQLLIYKVSNRFSGVPDRFSGSGSGTDFTLKISRVEAEDVGVYYCSQNTHVPPTFGQGTKVEIERTVAAPSVFIFPPSDEQLKSGTASVVCLLNNFYPREAKVQWKVDNALQSGNSQESVTEQDSKDSTYSLSSTLTLSKADYEKHKVYACEVTHQGLSSPVTKSFNRGEC",104
8,"GpH7-A5/GpH7-B3 variant L235_04F/GpL16-k0 (antibody, human IgG1, kappa, heterodimerized, mutation in one H chain only; also called He Ab) heavy 1: not shown heavy 2: not shown light: DIVMTQSPLSLPVTPGEPASISCQASESLVHSNRNTYLHWYLQKPGQSPQLLIYKVSNRFSGVPDRFSGSGSGTDFTLKISRVEAEDVGVYYCSQNTHVPPTFGQGTKVEIERTVAAPSVFIFPPSDEQLKSGTASVVCLLNNFYPREAKVQWKVDNALQSGNSQESVTEQDSKDSTYSLSSTLTLSKADYEKHKVYACEVTHQGLSSPVTKSFNRGEC",111
9,"GpH7-A5/GpH7-B3 variant L235_15Y/GpL16-k0 (antibody, human IgG1, kappa, heterodimerized, mutation in one H chain only; also called He Ab) heavy 1: not shown heavy 2: not shown light: DIVMTQSPLSLPVTPGEPASISCQASESLVHSNRNTYLHWYLQKPGQSPQLLIYKVSNRFSGVPDRFSGSGSGTDFTLKISRVEAEDVGVYYCSQNTHVPPTFGQGTKVEIERTVAAPSVFIFPPSDEQLKSGTASVVCLLNNFYPREAKVQWKVDNALQSGNSQESVTEQDSKDSTYSLSSTLTLSKADYEKHKVYACEVTHQGLSSPVTKSFNRGEC",122
10,"GpH7-A5/GpH7-B3 variant L235_20W/GpL16-k0 (antibody, human IgG1, kappa, heterodimerized, mutation in one H chain only; also called He Ab) heavy 1: not shown heavy 2: not shown light: DIVMTQSPLSLPVTPGEPASISCQASESLVHSNRNTYLHWYLQKPGQSPQLLIYKVSNRFSGVPDRFSGSGSGTDFTLKISRVEAEDVGVYYCSQNTHVPPTFGQGTKVEIERTVAAPSVFIFPPSDEQLKSGTASVVCLLNNFYPREAKVQWKVDNALQSGNSQESVTEQDSKDSTYSLSSTLTLSKADYEKHKVYACEVTHQGLSSPVTKSFNRGEC",118
11,"GpH7-A5/GpH7-B3 variant L328_06M/GpL16-k0 (antibody, human IgG1, kappa, heterodimerized, mutation in one H chain only; also called He Ab) heavy 1: not shown heavy 2: not shown light: DIVMTQSPLSLPVTPGEPASISCQASESLVHSNRNTYLHWYLQKPGQSPQLLIYKVSNRFSGVPDRFSGSGSGTDFTLKISRVEAEDVGVYYCSQNTHVPPTFGQGTKVEIERTVAAPSVFIFPPSDEQLKSGTASVVCLLNNFYPREAKVQWKVDNALQSGNSQESVTEQDSKDSTYSLSSTLTLSKADYEKHKVYACEVTHQGLSSPVTKSFNRGEC",104
12,"GpH7-A5/GpH7-B3 variant L328_14T/GpL16-k0 (antibody, human IgG1, kappa, heterodimerized, mutation in one H chain only; also called He Ab) heavy 1: not shown heavy 2: not shown light: DIVMTQSPLSLPVTPGEPASISCQASESLVHSNRNTYLHWYLQKPGQSPQLLIYKVSNRFSGVPDRFSGSGSGTDFTLKISRVEAEDVGVYYCSQNTHVPPTFGQGTKVEIERTVAAPSVFIFPPSDEQLKSGTASVVCLLNNFYPREAKVQWKVDNALQSGNSQESVTEQDSKDSTYSLSSTLTLSKADYEKHKVYACEVTHQGLSSPVTKSFNRGEC",116
13,"GpH7-A5/GpH7-B3 variant L328_20W/GpL16-k0 (antibody, human IgG1, kappa, heterodimerized, mutation in one H chain only; also called He Ab) heavy 1: not shown heavy 2: not shown light: DIVMTQSPLSLPVTPGEPASISCQASESLVHSNRNTYLHWYLQKPGQSPQLLIYKVSNRFSGVPDRFSGSGSGTDFTLKISRVEAEDVGVYYCSQNTHVPPTFGQGTKVEIERTVAAPSVFIFPPSDEQLKSGTASVVCLLNNFYPREAKVQWKVDNALQSGNSQESVTEQDSKDSTYSLSSTLTLSKADYEKHKVYACEVTHQGLSSPVTKSFNRGEC",113
14,"GpH7-A5/GpH7-B3 variant S239_09D/GpL16-k0 (antibody, human IgG1, kappa, heterodimerized, mutation in one H chain only; also called He Ab) heavy 1: not shown heavy 2: not shown light: DIVMTQSPLSLPVTPGEPASISCQASESLVHSNRNTYLHWYLQKPGQSPQLLIYKVSNRFSGVPDRFSGSGSGTDFTLKISRVEAEDVGVYYCSQNTHVPPTFGQGTKVEIERTVAAPSVFIFPPSDEQLKSGTASVVCLLNNFYPREAKVQWKVDNALQSGNSQESVTEQDSKDSTYSLSSTLTLSKADYEKHKVYACEVTHQGLSSPVTKSFNRGEC",114
15,"GpH7-A5/GpH7-B3 variant S267_02A/GpL16-k0 (antibody, human IgG1, kappa, heterodimerized, mutation in one H chain only; also called He Ab) heavy 1: not shown heavy 2: not shown light: DIVMTQSPLSLPVTPGEPASISCQASESLVHSNRNTYLHWYLQKPGQSPQLLIYKVSNRFSGVPDRFSGSGSGTDFTLKISRVEAEDVGVYYCSQNTHVPPTFGQGTKVEIERTVAAPSVFIFPPSDEQLKSGTASVVCLLNNFYPREAKVQWKVDNALQSGNSQESVTEQDSKDSTYSLSSTLTLSKADYEKHKVYACEVTHQGLSSPVTKSFNRGEC",120
16,"GpH7-A5/GpH7-B3 variant S324_02A/GpL16-k0 (antibody, human IgG1, kappa, heterodimerized, mutation in one H chain only; also called He Ab) heavy 1: not shown heavy 2: not shown light: DIVMTQSPLSLPVTPGEPASISCQASESLVHSNRNTYLHWYLQKPGQSPQLLIYKVSNRFSGVPDRFSGSGSGTDFTLKISRVEAEDVGVYYCSQNTHVPPTFGQGTKVEIERTVAAPSVFIFPPSDEQLKSGTASVVCLLNNFYPREAKVQWKVDNALQSGNSQESVTEQDSKDSTYSLSSTLTLSKADYEKHKVYACEVTHQGLSSPVTKSFNRGEC",102
